From publication PMC12550615, “Bifunctional Cysteine-Engineered CAR‑T Cells Enable Thiol-Mediated Targeting to Overcome Antigen Escape in B Cell Lymphoma” (ACS Central Science, 2025) come the findings set out here.

This test addresses T1, recombinant, fluorescently labeled CD19 (Homo sapiens, UniProt P15391, fluorescent label (dye and site not stated)).
T1 construct: CD19, B-lymphocyte antigen; In the functional rows this molecule stands for CD19 on JeKo-1 WT cells
Kind of test: flow cytometry on cells; recombinant, fluorescently labeled CD19 on CAR-transduced T cells, compared to nontransduced T cells; methods in the Supporting Information. The conditions noted are these: one partner purified. In general terms: Flow cytometry measures light scatter and fluorescence of single cells or particles in a stream.

T1 sequence (P15391 21-277): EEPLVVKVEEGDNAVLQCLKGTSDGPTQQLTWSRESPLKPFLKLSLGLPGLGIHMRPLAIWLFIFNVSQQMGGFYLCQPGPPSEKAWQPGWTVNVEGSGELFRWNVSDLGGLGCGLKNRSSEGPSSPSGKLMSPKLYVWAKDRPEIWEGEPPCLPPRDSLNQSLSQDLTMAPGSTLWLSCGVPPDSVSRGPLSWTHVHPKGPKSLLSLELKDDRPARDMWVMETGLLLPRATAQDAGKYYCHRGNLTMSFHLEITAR

B1: G228C CD19-CysCAR (anti-CD19 CAR with the scFv FMC63, CD19-41BB-CAR format, G228C) (scFv, V domains shown)
VH: EVKLQESGPGLVAPSQSLSVTCTVSGVSLPDYGVSWIRQPPRKGLEWLGVIWGSETTYYNSALKSRLTIIKDNSKSQVFLKMNSLQTDDTAIYYCAKHYYYGCSYAMDYWGQGTSVTVSS
VL: DIQMTQTTSSLSASLGDRVTISCRASQDISKYLNWYQQKPDGTVKLLIYHTSRLHSGVPSRFSGSGSGTDYSLTISNLEQEDIATYFCQQGNTLPYTFGGGTKLEIT
notes: scFv FMC63 (light chain domain, linker, heavy chain domain); CD8-derived hinge and transmembrane domains (Kymriah format); 4-1BB costimulatory domain (Kymriah format); Chimeric antigen receptor on T cells; source: primary human T cells, lentiviral transduction, on cells
Regarding B1, the binding result is recorded as “binds”.
